Abundance fitness data for 42 variants are collected here from the Human Domainome abundance scans (Beltran et al. 2025).

The labels stand for the following.
B1: Tumor protein p73, residues 487 to 549; numbered along this chain, O15350 (parent)
chain: YHADPSLVSFLTGLGCPNCIEYFTSQGLQSIYHLQNLTIEDLGALKIPEQYRMTIWRGLQDLK

± gives the uncertainty stated by the source.

The data set covers variants of B1. Kind of data set: abundance fitness (aPCA) (normalised: wild type 0, dead -1); higher = more abundant; growth selection in yeast, the domain comes from the species named. Conditions: Homo sapiens.
As for YHANPSLVSFLTGLGCPNCIEYFTSQGLQSIYHLQNLTIEDLGALKIPEQYRMTIWRGLQDLK [D4N], the abundance fitness is -0.15 ± 0.092. As to YHAWPSLVSFLTGLGCPNCIEYFTSQGLQSIYHLQNLTIEDLGALKIPEQYRMTIWRGLQDLK [D4W], the abundance fitness was found to be 0.181 ± 0.18. The same measure for NHADPSLVSFLTGLGCPNCIEYFTSQGLQSIYHLQNLTIEDLGALKIPEQYRMTIWRGLQDLK [Y1N]: 0.054 ± 0.13; for AHADPSLVSFLTGLGCPNCIEYFTSQGLQSIYHLQNLTIEDLGALKIPEQYRMTIWRGLQDLK [Y1A]: 0.003 ± 0.28; for PHADPSLVSFLTGLGCPNCIEYFTSQGLQSIYHLQNLTIEDLGALKIPEQYRMTIWRGLQDLK [Y1P]: 0.161 ± 0.14.

Take MHADPSLVSFLTGLGCPNCIEYFTSQGLQSIYHLQNLTIEDLGALKIPEQYRMTIWRGLQDLK [Y1M]: the abundance fitness was 0.18 ± 0.063. Turning to IHADPSLVSFLTGLGCPNCIEYFTSQGLQSIYHLQNLTIEDLGALKIPEQYRMTIWRGLQDLK [Y1I], the abundance fitness came to 0.336 ± 0.16. The same measure for HHADPSLVSFLTGLGCPNCIEYFTSQGLQSIYHLQNLTIEDLGALKIPEQYRMTIWRGLQDLK [Y1H]: -0.075 ± 0.088. For VHADPSLVSFLTGLGCPNCIEYFTSQGLQSIYHLQNLTIEDLGALKIPEQYRMTIWRGLQDLK [Y1V], the abundance fitness amounted to 0.173 ± 0.044.

In the case of EHADPSLVSFLTGLGCPNCIEYFTSQGLQSIYHLQNLTIEDLGALKIPEQYRMTIWRGLQDLK [Y1E], the abundance fitness turned out to be 0.01 ± 0.063. As for GHADPSLVSFLTGLGCPNCIEYFTSQGLQSIYHLQNLTIEDLGALKIPEQYRMTIWRGLQDLK [Y1G], the abundance fitness is -0.285 ± 0.051.

With QHADPSLVSFLTGLGCPNCIEYFTSQGLQSIYHLQNLTIEDLGALKIPEQYRMTIWRGLQDLK [Y1Q], the abundance fitness was -0.195 ± 0.093.

On to RHADPSLVSFLTGLGCPNCIEYFTSQGLQSIYHLQNLTIEDLGALKIPEQYRMTIWRGLQDLK [Y1R], for which the abundance fitness was -0.175 ± 0.054. The same measure for DHADPSLVSFLTGLGCPNCIEYFTSQGLQSIYHLQNLTIEDLGALKIPEQYRMTIWRGLQDLK [Y1D]: 0.23 ± 0.23. Next, SHADPSLVSFLTGLGCPNCIEYFTSQGLQSIYHLQNLTIEDLGALKIPEQYRMTIWRGLQDLK [Y1S]: 0.078 ± 0.05; CHADPSLVSFLTGLGCPNCIEYFTSQGLQSIYHLQNLTIEDLGALKIPEQYRMTIWRGLQDLK [Y1C]: -0.172 ± 0.076.

On to KHADPSLVSFLTGLGCPNCIEYFTSQGLQSIYHLQNLTIEDLGALKIPEQYRMTIWRGLQDLK [Y1K], for which the abundance fitness was -0.153 ± 0.073. Turning to THADPSLVSFLTGLGCPNCIEYFTSQGLQSIYHLQNLTIEDLGALKIPEQYRMTIWRGLQDLK [Y1T], the abundance fitness was found to be 0.109 ± 0.13. With FHADPSLVSFLTGLGCPNCIEYFTSQGLQSIYHLQNLTIEDLGALKIPEQYRMTIWRGLQDLK [Y1F], the abundance fitness worked out at 0.201 ± 0.078. For LHADPSLVSFLTGLGCPNCIEYFTSQGLQSIYHLQNLTIEDLGALKIPEQYRMTIWRGLQDLK [Y1L], the abundance fitness worked out at 0.075 ± 0.059.

Consider YHADESLVSFLTGLGCPNCIEYFTSQGLQSIYHLQNLTIEDLGALKIPEQYRMTIWRGLQDLK [P5E], for which the abundance fitness worked out at 0.24 ± 0.049. Next, YHADCSLVSFLTGLGCPNCIEYFTSQGLQSIYHLQNLTIEDLGALKIPEQYRMTIWRGLQDLK [P5C]: 0.167 ± 0.11; YHADWSLVSFLTGLGCPNCIEYFTSQGLQSIYHLQNLTIEDLGALKIPEQYRMTIWRGLQDLK [P5W]: 0.021 ± 0.043; YHADGSLVSFLTGLGCPNCIEYFTSQGLQSIYHLQNLTIEDLGALKIPEQYRMTIWRGLQDLK [P5G]: 0.134 ± 0.038.

YHADKSLVSFLTGLGCPNCIEYFTSQGLQSIYHLQNLTIEDLGALKIPEQYRMTIWRGLQDLK [P5K]: the abundance fitness was found to be 0.238 ± 0.036. For the variant YHADHSLVSFLTGLGCPNCIEYFTSQGLQSIYHLQNLTIEDLGALKIPEQYRMTIWRGLQDLK [P5H], the abundance fitness turned out to be 0.003 ± 0.064. The same measure for YHADLSLVSFLTGLGCPNCIEYFTSQGLQSIYHLQNLTIEDLGALKIPEQYRMTIWRGLQDLK [P5L]: 0.073 ± 0.035; for YHADMSLVSFLTGLGCPNCIEYFTSQGLQSIYHLQNLTIEDLGALKIPEQYRMTIWRGLQDLK [P5M]: 0.334 ± 0.038; for YHADQSLVSFLTGLGCPNCIEYFTSQGLQSIYHLQNLTIEDLGALKIPEQYRMTIWRGLQDLK [P5Q]: -0.005 ± 0.055. Take YHADTSLVSFLTGLGCPNCIEYFTSQGLQSIYHLQNLTIEDLGALKIPEQYRMTIWRGLQDLK [P5T]: the abundance fitness came out at 0.211 ± 0.04. Turning to YHADASLVSFLTGLGCPNCIEYFTSQGLQSIYHLQNLTIEDLGALKIPEQYRMTIWRGLQDLK [P5A], the abundance fitness worked out at 0.11 ± 0.063. Next, YHADFSLVSFLTGLGCPNCIEYFTSQGLQSIYHLQNLTIEDLGALKIPEQYRMTIWRGLQDLK [P5F]: 0.046 ± 0.21; YHADRSLVSFLTGLGCPNCIEYFTSQGLQSIYHLQNLTIEDLGALKIPEQYRMTIWRGLQDLK [P5R]: 0.085 ± 0.033; YHADISLVSFLTGLGCPNCIEYFTSQGLQSIYHLQNLTIEDLGALKIPEQYRMTIWRGLQDLK [P5I]: 0.209 ± 0.057. The same measure for YHADNSLVSFLTGLGCPNCIEYFTSQGLQSIYHLQNLTIEDLGALKIPEQYRMTIWRGLQDLK [P5N]: 0.225 ± 0.084; for YHADVSLVSFLTGLGCPNCIEYFTSQGLQSIYHLQNLTIEDLGALKIPEQYRMTIWRGLQDLK [P5V]: 0.159 ± 0.037; for YHADDSLVSFLTGLGCPNCIEYFTSQGLQSIYHLQNLTIEDLGALKIPEQYRMTIWRGLQDLK [P5D]: 0.201 ± 0.07. The same measure for YFADPSLVSFLTGLGCPNCIEYFTSQGLQSIYHLQNLTIEDLGALKIPEQYRMTIWRGLQDLK [H2F]: 0.145 ± 0.11; for YWADPSLVSFLTGLGCPNCIEYFTSQGLQSIYHLQNLTIEDLGALKIPEQYRMTIWRGLQDLK [H2W]: 0.119 ± 0.063; for YGADPSLVSFLTGLGCPNCIEYFTSQGLQSIYHLQNLTIEDLGALKIPEQYRMTIWRGLQDLK [H2G]: -0.096 ± 0.045. Consider YNADPSLVSFLTGLGCPNCIEYFTSQGLQSIYHLQNLTIEDLGALKIPEQYRMTIWRGLQDLK [H2N], for which the abundance fitness amounted to 0.216 ± 0.07. As to YRADPSLVSFLTGLGCPNCIEYFTSQGLQSIYHLQNLTIEDLGALKIPEQYRMTIWRGLQDLK [H2R], the abundance fitness amounted to 0.148 ± 0.037.
